± gives the uncertainty stated by the source.
Assay: protein stability index of a GFP-peptide fusion (yeast GPS) (PSI 1-4); higher = more stable; sorted into four equal gates, so the index is relative within each strain
How it was run: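 Tiled 17-residue peptides from yeast proteins were fused downstream of GFP on a plasmid that also expresses Cherry, and the pooled library was carried in yeast. Mid-log cultures grown in leucine-free medium were sorted into four equal gates by GFP/Cherry fluorescence ratio. Plasmids from each gate were PCR-amplified and Illumina-sequenced, and reads were assigned to strains by barcodes. Each peptide's protein stability index is the sum, over gates, of the gate's read frequency multiplied by its gate number.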

Row | Sequence | protein stability index (doa10∆) | protein stability index (pdr5∆) | protein stability index (san1∆) | protein stability index (ubr1∆)
1 | VSLSQLLFIVGQVAIKT [YCS4] | 1.85 ± 0.062 | 2.27 ± 0.062 | 1.71 ± 0.088 | 2.13 ± 0.046
2 | YIELLPNADDIRDSIPQ [DIS3] | 2.83 ± 0.075 | 2.85 ± 0.068 | 2.87 ± 0.078 | 2.75 ± 0.039
3 | TSTNGDSENNEENSSSN [RGR1] | 2.64 ± 0.18 | 3.18 ± 0.11 | 3.36 ± 0.11 | 2.95 ± 0.086
4 | FPMPYENEEFITFLQTL [ECM29] | 2.34 ± 0.058 | 2.53 ± 0.034 | 2.4 ± 0.047 | 2.39 ± 0.063
5 | VRELVEKIDGMDVDSVK [RPC82] | 2.99 ± 0.19 | 3.41 ± 0.27 | 3.34 ± 0.11 | 3.3 ± 0.064
6 | YVDPETTYTYQQPNPLQ [ROX3] | 2.33 ± 0.087 | 2.31 ± 0.099 | 2.02 ± 0.12 | 2.86 ± 0.12
7 | TKRQKHFAWLPTHIWNA [POP1] | 2.03 ± 0.031 | 1.82 ± 0.036 | 1.55 ± 0.05 | 1.74 ± 0.021
8 | SGQKAGLIAARRTGLLR [RPL2A] | 3.07 ± 0.19 | 3.43 ± 0.11 | 3.15 ± 0.067 | 2.72 ± 0.16
9 | SNEEKEKIKMKLKQGQK [GAL11] | 2.96 ± 0.25 | 3.37 ± 0.12 | 3.04 ± 0.07 | –
10 | KLREKVNDVELAFKKNE [MTW1] | 3.1 ± 0.13 | 3.02 ± 0.13 | 3 ± 0.15 | 3.06 ± 0.21
11 | NELQEERLKVPILVTLV [POP6] | 1.67 ± 0.034 | 1.99 ± 0.036 | 1.84 ± 0.053 | 1.7 ± 0.023
12 | ADINSNRLSNPQKNLLL [YOR098C/NUP1] | 3.11 ± 0.069 | 3 ± 0.07 | 2.81 ± 0.065 | 2.88 ± 0.082
13 | AEEDSLLSGEDLTLDDI [YJL039C/NUP192] | 3.62 ± 0.13 | 3.4 ± 0.11 | – | 3.43 ± 0.13
14 | WRQFGNRMQISPDQMRN [GRR1] | 3.07 ± 0.12 | 3.14 ± 0.12 | 2.89 ± 0.11 | 2.75 ± 0.11
15 | RKVREQEELKKRQELEE [MED2] | 1.86 ± 0.039 | 2.36 ± 0.048 | 1.96 ± 0.1 | 2.55 ± 0.033
16 | LQDELKELQLEKESVEK [SMC3] | 3.66 ± 0.13 | 3.25 ± 0.21 | 2.7 ± 0.26 | –
17 | NKKIGKRPPEIMSTEAH [SIR4] | 3.09 ± 0.12 | 3.27 ± 0.17 | 3.04 ± 0.09 | 3.22 ± 0.088
18 | LYPCYFDINRSHKEGRR [SEC65] | 1.15 ± 0.17 | 1.93 ± 0.16 | 1.09 ± 0.24 | 1.1 ± 0.08
19 | MFGIRSGNNNGGFTNLT [YDL088C/ASM4] | 3.23 ± 0.085 | 3.41 ± 0.059 | 3.19 ± 0.054 | 3.4 ± 0.044
20 | ARIIRSELLARDIFQED [RGR1] | 2.26 ± 0.11 | 2.4 ± 0.087 | 2.14 ± 0.12 | 2.19 ± 0.096
21 | ITYALSGYVRSRGESDD [RPS21B] | 1.74 ± 0.075 | 2.81 ± 0.11 | 2.44 ± 0.092 | 2.84 ± 0.058
22 | VTRFDEKQIEELLDNCI [SRB6] | 2.9 ± 0.21 | – | 3.21 ± 0.16 | 3.33 ± 0.12
23 | WKPNPSYDVENVNSRNQ [SRB5] | 2.96 ± 0.084 | 2.95 ± 0.14 | 3 ± 0.11 | 3.3 ± 0.085
24 | KLSESLDTRKELWRKEQ [SMC3] | 1.29 ± 0.077 | 1.75 ± 0.1 | 3.19 ± 0.19 | 1.82 ± 0.12
25 | TNWDDHAIIIFGYPETI [YMR153W/NUP53] | 2.45 ± 0.062 | 2.63 ± 0.048 | 2.3 ± 0.077 | 2.71 ± 0.038

Row | Sequence | protein stability index (doa10∆) | protein stability index (pdr5∆) | protein stability index (san1∆) | protein stability index (ubr1∆)
26 | TKFNHNKEKSNSPTSFF [YOR098C/NUP1] | 2.78 ± 0.069 | 2.85 ± 0.066 | 2.66 ± 0.048 | 2.53 ± 0.051
27 | FLLLAVNKYGLRADKLY [ISW2] | 3.05 ± 0.078 | 2.5 ± 0.075 | 2.62 ± 0.055 | 2.93 ± 0.059
28 | VDVELITSINVENDTFI [FAS2] | 3.4 ± 0.1 | 3.37 ± 0.069 | 3.09 ± 0.086 | 3.32 ± 0.072
29 | LEELAETFQDTFSGALG [FAS2] | 2.95 ± 0.065 | 3.06 ± 0.077 | 3.21 ± 0.05 | 3.31 ± 0.067
30 | FHAEPSGTFYRYNAKAI [PUP2] | 2.79 ± 0.15 | 1.81 ± 0.13 | 2.87 ± 0.059 | 1.67 ± 0.077
31 | TTARAKARAKKTKKEKG [RPN2] | 3.31 ± 0.15 | 3.63 ± 0.2 | 3.16 ± 0.079 | 3.21 ± 0.089
32 | QRQERLRQQQQQQDQPE [RPN10] | 3.34 ± 0.098 | 2.88 ± 0.064 | 2.86 ± 0.088 | 3.22 ± 0.056
33 | DSSGVNDLHHSEKKYAE [RPN3] | 2.69 ± 0.11 | 3.24 ± 0.16 | 2.88 ± 0.21 | –
34 | ISIKDNKLVMKSKFNKS [GAL11] | 2.51 ± 0.057 | 2.59 ± 0.064 | 3.2 ± 0.047 | 2.08 ± 0.068
35 | LKPSMSVALHRHSNALV [RPT3] | 1.64 ± 0.11 | 2.41 ± 0.15 | 2.51 ± 0.15 | 2.53 ± 0.22
36 | FYMKKDAVEGVSECIIL [RPO31] | – | 3.07 ± 0.29 | 2.86 ± 0.14 | –
37 | IDPSVTMMTVEEKPDVT [RPT1] | 2.62 ± 0.097 | 2.58 ± 0.059 | 1.93 ± 0.13 | 2.38 ± 0.05
38 | SAEYLQMSLEANVVDIT [YJR042W/NUP85] | 1.8 ± 0.064 | 2.19 ± 0.065 | 2.05 ± 0.14 | 2.38 ± 0.058
39 | RNSPFWWTNSHHDGKLW [PRP8] | 2.55 ± 0.069 | 2.85 ± 0.06 | 2.68 ± 0.041 | 2.78 ± 0.049
40 | VSANTPKSLNSNININV [SWI1] | 3.14 ± 0.11 | 2.64 ± 0.12 | 2.84 ± 0.12 | 2.87 ± 0.093
41 | KFLQVMQKHGYIGEFEY [RPS22A] | 2.68 ± 0.063 | 2.27 ± 0.059 | 2.11 ± 0.092 | 2.6 ± 0.054
42 | NKDASLALQRGATVFVN [DPB4] | 2.61 ± 0.099 | 2.29 ± 0.072 | 2.88 ± 0.067 | 2.32 ± 0.083
43 | KKISSFKSLIDEDLLDT [YGL172W/NUP49] | 3.08 ± 0.097 | 3.21 ± 0.079 | 3.12 ± 0.062 | 3.14 ± 0.063
44 | TIEKDKMKIQETISKLN [SMC2] | 1.71 ± 0.058 | 1.69 ± 0.044 | 1.94 ± 0.12 | 1.53 ± 0.038
45 | SIISSKTSCVVEKRIGK [RGR1] | 2.46 ± 0.089 | 2.62 ± 0.084 | 2.59 ± 0.093 | 2.69 ± 0.05
46 | SLDIRHDFIKGLIMLNL [NUT1] | 2.18 ± 0.064 | 1.56 ± 0.068 | 1.31 ± 0.13 | 1.72 ± 0.057
47 | VAIACDLRLGSQSLGVS [PUP3] | – | 2.75 ± 0.26 | 2.85 ± 0.17 | –
48 | FLTPMDSIDLAPNTLTN [YML103C/NUP188] | 1.51 ± 0.18 | 1.68 ± 0.1 | 1.98 ± 0.18 | 1.26 ± 0.082
49 | FGATTNDDKKTEPDKPA [YJL041W/NSP1] | 1.55 ± 0.098 | 2.48 ± 0.097 | 2.61 ± 0.15 | 2.65 ± 0.11
50 | SVDITGGPWFTDGELDI [RPC34] | 3.04 ± 0.14 | 3.43 ± 0.12 | 3.12 ± 0.13 | 3.18 ± 0.078

— the supplement of paper PMC9732359
